Columns and labels:
[1] = target: T1, TGF-β type I receptor (TRI) (human (endogenous in HeLa)), P36897; assay: live-cell single-molecule TIRFM tracking (membrane on-times); EGFP-Smad3 or EGFP-M-Smad3 at low expression in living HeLa cells treated with 10 ng/ml TGF-β1 for 15 min at 37 °C; 10 Hz; cumulative histograms of on-times fitted with a single exponential; settings: remark: other sources report otherwise
T1 chain: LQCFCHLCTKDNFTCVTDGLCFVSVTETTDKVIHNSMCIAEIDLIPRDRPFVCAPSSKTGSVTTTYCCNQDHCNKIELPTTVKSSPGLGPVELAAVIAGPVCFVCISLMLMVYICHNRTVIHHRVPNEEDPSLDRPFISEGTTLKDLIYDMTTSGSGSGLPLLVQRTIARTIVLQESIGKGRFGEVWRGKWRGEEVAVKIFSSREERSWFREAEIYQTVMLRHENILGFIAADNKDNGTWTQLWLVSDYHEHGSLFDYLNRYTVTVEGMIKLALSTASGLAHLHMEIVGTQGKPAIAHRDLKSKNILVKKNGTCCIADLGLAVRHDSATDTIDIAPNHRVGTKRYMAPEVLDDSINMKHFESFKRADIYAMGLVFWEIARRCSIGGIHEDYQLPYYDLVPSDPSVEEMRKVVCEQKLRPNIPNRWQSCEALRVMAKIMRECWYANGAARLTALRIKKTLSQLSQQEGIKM

[2] = target: T1, TGF-β type I receptor (TRI) (human …); assay: live-cell single-molecule TIRFM tracking (membrane on-times); EGFP-Smad3 or EGFP-M-Smad3 at low expression in living HeLa cells, unstimulated; 10 Hz; cumulative histograms of on-times fitted with a single exponential; settings: remark: other sources report otherwise

koff [1]: 1.67 s⁻¹
time constant of membrane on-times (τs) [1]: 0.6 s
koff [2]: 1.96 s⁻¹
time constant of membrane on-times (τu) [2]: 0.51 s
B1: EGFP-Smad3, P84022 1-425 (natural protein)
chain: MSSILPFTPPIVKRLLGWKKGEQNGQEEKWCEKAVKSLVKKLKKTGQLDELEKAITTQNVNTKCITIPRSLDGRLQVSHRKGLPHVIYCRLWRWPDLHSHHELRAMELCEFAFNMKKDEVCVNPYHYQRVETPVLPPVLVPRHTEIPAEFPPLDDYSHSIPENTNFPAGIEPQSNIPETPPPGYLSEDGETSDHQMNHSMDAGSPNLSPNPMSPAHNNLDLQPVTYCEPAFWCSISYYELNQRVGETFHASQPSMTVDGFTDPSNSERFCLGLLSNVNRNAAVELTRRHIGRGVRLYYIGGEVFAECLSDSAIFVQSPNCNQRYGWHPATVCKIPPGCNLKIFNNQEFAALLAQSVNQGFEAVYQLTRMCTIRMSFVKGWGAEYRRQTVTSTPCWIELHLNGPLQWLDKVLTQMGSPSIRCSSVS

From paper PMC5027577
